This is an account of results in patent publication US20180118840A1 (Eli Lilly, published 2018).

For experiment [1], the target named is T1, human Dkk-1 (Dickkopf-related protein 1) (human, UniProt O94907 32-266).
T1 sequence (looked up): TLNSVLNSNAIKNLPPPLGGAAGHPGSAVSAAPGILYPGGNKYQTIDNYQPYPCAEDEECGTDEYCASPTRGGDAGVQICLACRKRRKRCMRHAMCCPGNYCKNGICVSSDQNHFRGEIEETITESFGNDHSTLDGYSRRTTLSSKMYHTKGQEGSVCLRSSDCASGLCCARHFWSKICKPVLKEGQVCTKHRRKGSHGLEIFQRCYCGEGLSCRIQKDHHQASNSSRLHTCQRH
As to the kind of experiment: cell-based or functional assay.

The target of experiment [2] is T1, human Dkk-1 (Dickkopf-related protein 1). As to the kind of experiment: SPR (Biacore 2000), antibody captured on protein A, antigen as analyte, 1:1 model, average of n=3. As to the method:
(§1) A CM5 chip (Biacore, pin. BR-100530) containing immobilized protein A (generated using standard NHS-EDC amine coupling) on all four flow cells (Fc) is used to employ a capture methodology. Antibody samples are prepared at 0.2-10 μg/mL by dilution into running buffer. Human Dkk-1 samples are prepared at final concentrations of 100 nM, 50 nM, 25 nM, 12.5 nM, 6.25 nM, 3.125 nM, 1.5625 nM, 0.78125 nM, 0.390625 nM, 0.1953125 nM, and 0 (blank) nM by dilution into running buffer. Human RANKL are prepared at final concentrations of 100 nM, 50 nM, 25 nM, 12.5 nM, 6.25 nM, 3.125 nM, 1.5625 nM, 0.78125 nM, 0.390625 nM, 0.1953125 nM, and 0 (blank) nM by dilution into running buffer.
(§2) Each analysis cycle consists of (1) capturing antibody samples on separate flow cells (Fc2 and Fc3); (2) injection of each human Dkk-1 concentration over all Fc at 50 μL/min for 300 seconds followed by return to buffer flow for 1200 seconds to monitor dissociation phase; (3) injection of each human RANKL concentration over all Fc at 100 μL/min for 150 seconds followed by return to buffer flow for 1800 seconds to monitor dissociation phase; (4) regeneration of chip surfaces with injection of 10 mM glycine, pH 1.5, for 120 seconds at 5 μL/min over all cells; and (5) equilibration of chip surfaces with a 10 μL (60-sec) injection of HBS-EP+. Data are processed using standard double-referencing and fit to a 1:1 binding model using Biacore 2000 Evaluation software, version 2.0.3, to determine the association rate (kₒₙ, M⁻¹s⁻¹ units), dissociation rate (koff, s⁻¹ units), and Rₘₐₓ (RU units). The equilibrium dissociation constant (KD) is calculated from the relationship KD=koff/kₒₙ, and is in molar units.

Experiment [3] addresses T2, human RANKL (receptor activator of nuclear factor kappa-B ligand) (human, UniProt O14788 140-317, limits assumed).
T2 sequence (looked up): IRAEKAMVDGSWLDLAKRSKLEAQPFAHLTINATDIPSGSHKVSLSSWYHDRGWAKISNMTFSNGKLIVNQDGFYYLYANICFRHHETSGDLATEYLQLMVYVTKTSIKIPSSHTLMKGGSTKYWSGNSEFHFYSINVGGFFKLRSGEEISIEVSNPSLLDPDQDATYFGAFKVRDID
As to the kind of experiment: cell-based or functional assay.

Experiment [4] addresses T2, human RANKL (receptor activator of …). As to the kind of experiment: SPR (Biacore 2000), antibody captured on protein A, antigen as analyte, 1:1 model, average of n=5. As to the method:
as §1, §2

B1: Dkk-1 neutralizing antibody (a Dkk-1 antibody having an IgG4 backbone and the same heavy and light chain variable region sequences as the mAb portion of the … (antibody, V domains shown)
VH: EVQLVESGGGLVQPGGSLRLSCAASGFTFSSYTMSWVRQAPGKGLEWVATISGGGFGTYYPDSVKGRFTISRDNAKNSLYLQMNSLRAEDTAVYYCARPGYNNYYFDIWGQGTTVTVSS
VL: EIVLTQSPATLSLSPGERATLSCHASDSISNSLHWYQQKPGQAPRLLIYYARQSIQGIPARFSGSGSGTDFTLTISSLEPEDFAVYYCQQSESWPLHFGGGTKVEIK
As for B1, in experiment [1], the “EC50, restoration of Wnt3a-induced TCF/LEF luciferase luminescence in MC3T3E1/Topflash cells” value came out at 6.61 nM.

B2: exemplified bispecific antibody compound of Table 1 (anti-Dkk-1 IgG4 mAb with anti-RANKL scFv linked at the C-terminus of each heavy chain) (bispecific antibody)
heavy: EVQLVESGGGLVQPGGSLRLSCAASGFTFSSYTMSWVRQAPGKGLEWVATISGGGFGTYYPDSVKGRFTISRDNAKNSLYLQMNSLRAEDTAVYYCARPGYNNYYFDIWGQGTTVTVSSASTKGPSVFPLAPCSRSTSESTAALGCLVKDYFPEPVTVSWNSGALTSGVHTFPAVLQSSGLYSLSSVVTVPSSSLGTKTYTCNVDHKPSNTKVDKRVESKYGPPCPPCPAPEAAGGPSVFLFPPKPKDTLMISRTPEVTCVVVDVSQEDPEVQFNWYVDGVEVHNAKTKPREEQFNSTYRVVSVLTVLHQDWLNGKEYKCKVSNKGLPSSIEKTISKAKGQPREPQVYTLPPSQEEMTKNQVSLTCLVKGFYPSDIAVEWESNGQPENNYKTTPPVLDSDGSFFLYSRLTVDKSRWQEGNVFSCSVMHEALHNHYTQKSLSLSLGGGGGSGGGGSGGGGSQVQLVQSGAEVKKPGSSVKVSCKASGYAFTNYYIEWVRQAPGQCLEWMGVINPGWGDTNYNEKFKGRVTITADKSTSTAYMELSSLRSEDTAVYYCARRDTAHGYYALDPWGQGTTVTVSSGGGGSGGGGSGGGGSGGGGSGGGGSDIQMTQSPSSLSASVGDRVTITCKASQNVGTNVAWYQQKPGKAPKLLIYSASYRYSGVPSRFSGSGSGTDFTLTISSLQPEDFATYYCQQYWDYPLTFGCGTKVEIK
light: EIVLTQSPATLSLSPGERATLSCHASDSISNSLHWYQQKPGQAPRLLIYYARQSIQGIPARFSGSGSGTDFTLTISSLEPEDFAVYYCQQSESWPLHFGGGTKVEIKRTVAAPSVFIFPPSDEQLKSGTASVVCLLNNFYPREAKVQWKVDNALQSGNSQESVTEQDSKDSTYSLSSTLTLSKADYEKHKVYACEVTHQGLSSPVTKSFNRGEC
modifications: glycosylated at asparagine residue 296 of SEQ ID NO: 1
notes: also called Exemplified Bispecific Ab
Consider B2, for which, in experiment [2], the Kd worked out at 0.0357 nM, the koff was 6.55e-05 s⁻¹ and the kon was 1.83e+06 M⁻¹ s⁻¹. In addition, in experiment [3], the “IC50, reduction of RANKL-induced NF-kB driven luciferase luminescence in HEK293 cells expressing human RANK” value turned out to be 1.2 nM. Also, in experiment [1], the “EC50, restoration of Wnt3a-induced TCF/LEF luciferase luminescence in MC3T3E1/Topflash cells” value stood at 5.3 nM. In experiment [4], this molecule gave a Kd of 0.0874 nM, a koff of 4.2e-05 s⁻¹ and a kon of 530000 M⁻¹ s⁻¹.
